The values that follow come from patent publication US20200095324A1 (POTENZA THERAPEUTICS, published 2020).

Test [1] addresses T1, human TIGIT (human, UniProt Q495A1 22-141).
T1 construct: Expressed in HEK-293 cells and secreted as soluble protein; also called hTIGIT; monomeric wild type human TIGIT; not shown: His tag (purified on Ni-NTA, called 'human TIGIT HIS')
T1 sequence: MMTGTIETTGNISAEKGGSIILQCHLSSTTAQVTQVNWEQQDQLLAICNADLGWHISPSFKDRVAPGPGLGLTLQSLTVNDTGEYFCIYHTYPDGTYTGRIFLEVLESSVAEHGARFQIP
The experiment in a line: BLI (Octet), antibody captured on anti-human Fc sensors. The procedure:
(§1) To identify the epitope for MAB10 binding to human TIGIT, 18 alanine single point mutations were made. Proteins were expressed in HEK-293 cells, secreted as soluble protein, purified on Ni-NTA resin, and characterized by SDS-PAGE. Binding was assessed by Bio-Layer Interferometry (BLI) using the Octet platform. MAB10 was captured on anti-human Fc sensors, washed, and exposed to either monomeric wild type human TIGIT or to one of a selection of point mutants.
To identify the epitope for MAB2, MAB15, and MAB21 binding to human TIGIT, binding to 7 alanine single point mutations was assessed using BLI as described in the preceding paragraph.
Background: In BLI a coated tip is dipped into the sample, and binding shifts an interference pattern.

The target of test [2] is T1, human TIGIT. The experiment in a line: BLI (Octet), MAB10 captured on anti-human Fc sensors, monomeric wild type human TIGIT in solution. The method, then:
as §1

Test [3] addresses T1, human TIGIT. Kind of test: complex formation, size exclusion chromatography and crystallisation. The procedure:
The binding epitope of MAB10 was also identified through crystallographic studies. MAB10 Fab was complexed with human TIGIT, purified by size exclusion chromatography, and concentrated to 10 mg/ml. Crystals were grown out of 14% PEG4000, 0.1M MES pH 6, 10 mM β-nicotinamide adenine dinucleotide hydrate, 0.5% n-dodecyl-β-D-maltoside. X-ray data were collected at Argonne National Laboratories (GM/CA CAT 23ID-D) and processed using CCP4 (Collaborative Computational Project No. 4, Software for Macromolecular X-Ray Crystallography) and Phenix (Python-based Hierarchical ENvironment for Integrated Xtallography). TIGIT residues within a contact distance of 3.8 Å from the heavy and light chain were considered part of the binding epitope and include T55, Q56, L65, D72, L73, H76, I77, S78, P79 and H111.
Background: Size exclusion chromatography separates by hydrodynamic size, large species first.

B1: MAB2 (antibody, human IgG4 S228P, kappa, V domains shown)
VH: QLQLQESGPGLVKPSETLSLTCTVSGGSISSSKYYWGWIRQPPGKGLEWIGSIYYSGSTFYNPSLKSRVTISVDTSKNQFSLKLSSVTAADTAVYYCARDANYYGSAWAFDPWGQGTLVTVSS
VL: EIVLTQSPATLSLSPGERATLSCRASQSVSSYLAWYQQKPGQAPRLLIYDASNRATGIPARFSGSGSGTDFTLTISSLEPEDFAVYYCQQHFNLPTFGGGTKVEIKR
notes: also called MAB2-IgG4
As to B1, the binding result with human TIGIT [1] is “binds”.

B2: MAB15 (antibody, human IgG4 S228P, kappa, V domains shown)
VH: QVQLVQSGAEVKKPGASVKVSCKASGYTFREYYMHWVRQAPGQGLEWMGIINPSIGLTSYARKFQGRVTMTRDTSTSTVYMELSSLRSEDTAVYYCARGGRTTWIGAFDIWGQGTMVTVSS
VL: EIVMTQSPATLSVSPGERATLSCRASQSVSSNLAWYQQKPGQAPRLLIYGASTRATGIPARFSGSGSGTEFTLTISSLQSEDFAVYYCQQYVVWPPLTFGGGTKVEIKR
notes: also called MAB15-IgG4
With B2, the binding result in the test with human TIGIT [1] was “binds”.

B3: MAB10 (antibody, human IgG4 S228P, kappa, V domains shown)
VH: QVQLQESGPGLVKPSQTLSLTCTVSGGSIESGLYYWGWIRQPPGKGLEWIGSIYYSGSTYYNPSLKSRATISVDTSKNQFSLKLSSVTAADTAVYYCARDGVLALNKRSFDIWGQGTMVTVSS
VL: EIVLTQSPGTLSLSPGERATLSCRASQSVSSSYLAWYQQKPGQAPRLLIYGASSRATGIPDRFSGSGSGTDFTLTISRLEPEDFAVYYCQQHTVRPPLTFGGGTKVEIKR
notes: also called MAB10-IgG4; anti-TIGIT antibody MAB10
B3: the binding result with human TIGIT [2] is “binds”.

B4: MAB10 Fab (Fab, V domains shown)
VH: B3 VH
VL: EIVLTQSPGTLSLSPGERATLSCRASQSVSSSYLAWYQQKPGQAPRLLIYGASSRATGIPDRFSGSGSGTDFTLTISRLEPEDFAVYYCQQHTVRPPLTFGGGTKVEIK
notes: Fab of MAB10 used for crystallography
In the case of B4, the binding result with human TIGIT [3] was “binds”.

B5: MAB21 (antibody, human IgG4 S228P, kappa, V domains shown)
VH: QVQLVQSGAEVKKPGASVKVSCKASGYTFTSHYMGWVRQAPGQGLEWMGIINPSMGATSYTQKFRGRVTMTRDTSTSTVYMELSSLRSEDTAVYYCARLHVSGSYYPAYLDYWGQGTMVTVSS
VL: EIVMTQSPATLSVSPGERATLSCRASQSVSSNLAWYQQKPGQAPRHLIYGASTRATGIPARFSGSGSGTEFTLTISSLQSEDFAVYYCQQYIVFPWTFGGGTKVEIKR
notes: also called MAB21-IgG4
For the molecule B5, the binding result with human TIGIT [1] was “binds”.
